Measured values published in US20130209454A1.

What was measured:
Assay in all cases: cell-based or functional assay
[1] = biological target: HIV-1 Env of strain Ce1086_B2 (HIV-1)
[2] = biological target: HIV-1 Env of strain BJOX025000.01.1 (HIV-1)
[3] = biological target: HIV-1 Env of strain 6041.v3.c23 (HIV-1)
[4] = biological target: HIV-1 Env of strain BJOX009000.02.4 (HIV-1)
[5] = biological target: HIV-1 Env of strain C4118.c09 (HIV-1)
[6] = biological target: HIV-1 Env of strain HIV-0013095-2.11 (HIV-1)
[7] = biological target: HIV-1 Env of strain 9004SS_A3_4 (HIV-1)
[8] = biological target: HIV-1 Env of strain 191084 B7-19 (HIV-1)
[9] = biological target: HIV-1 Env of strain X2088_c9 (HIV-1)
[10] = biological target: HIV-1 Env of strain HIV-001428-2.42 (HIV-1)
[11] = biological target: HIV-1 Env of strain 1012_11_TC21_3257 (HIV-1)
[12] = biological target: HIV-1 Env of strain HIV-16055-2.3 (HIV-1)
[13] = biological target: HIV-1 Env of strain BJOX028000.10.3 (HIV-1)
[14] = biological target: Env of HIV-1 strain 6952.v1.c20 (HIV-1)
[15] = biological target: Env of HIV-1 strain Q259.d2.17 (HIV-1)
[16] = biological target: Env of HIV-1 strain HIV-0013095-2.11 (HIV-1)
[17] = biological target: Env of HIV-1 strain C2101.c01 (HIV-1)
[18] = biological target: Env of HIV-1 strain Ce1172_H1 (HIV-1)
[19] = biological target: Env of HIV-1 strain QH0692.42 (HIV-1)
[20] = biological target: Env of HIV-1 strain 1054_07_TC4_1499 (HIV-1)
[21] = biological target: Env of HIV-1 strain X1193_c1 (HIV-1)
[22] = biological target: Env of HIV-1 strain CNE58 (HIV-1)
[23] = biological target: Env of HIV-1 strain Ce704809221_1B3 (HIV-1)
[24] = biological target: Env of HIV-1 strain ZM233M.PB6 (HIV-1)
[25] = biological target: Env of HIV-1 strain CNE20 (HIV-1)
[26] = biological target: Env of HIV-1 strain P0402_c2_11 (HIV-1)
[27] = biological target: Env of HIV-1 strain 1394C9G1(Rev-) (HIV-1)
[28] = biological target: Env of HIV-1 strain 0815.v3.c3 (HIV-1)
[29] = biological target: Env of HIV-1 strain C1080.c03 (HIV-1)
[30] = biological target: Env of HIV-1 strain 3817.v2.c59 (HIV-1)
[31] = biological target: Env of HIV-1 strain 6480.v4.c25 (HIV-1)
[32] = biological target: Env of HIV-1 strain BJOX015000.11.5 (HIV-1)
[33] = biological target: Env of HIV-1 strain Ce1176_A3 (HIV-1)
[34] = biological target: Env of HIV-1 strain 263-8 (HIV-1)
[35] = biological target: Env of HIV-1 strain CNE19 (HIV-1)
[36] = biological target: Env of HIV-1 strain ZM214M.PL15 (HIV-1)
[37] = biological target: Env of HIV-1 strain BF1266.431a (HIV-1)
[38] = biological target: Env of HIV-1 strain ZM197M.PB7 (HIV-1)
[39] = biological target: Env of HIV-1 strain 246F C1G (HIV-1)
[40] = biological target: Env of HIV-1 strain CNE17 (HIV-1)
[41] = biological target: Env of HIV-1 strain TRO.11 (HIV-1)
[42] = biological target: Env of HIV-1 strain 235-47 (HIV-1)
[43] = biological target: Env of HIV-1 strain SC05_8C11_2344 (HIV-1)
[44] = biological target: Env of HIV-1 strain 6545.v4.c1 (HIV-1)
[45] = biological target: Env of HIV-1 strain CNE30 (HIV-1)
[46] = biological target: Env of HIV-1 strain CNE52 (HIV-1)
[47] = biological target: Env of HIV-1 strain Q461.e2 (HIV-1)
[48] = biological target: Env of HIV-1 strain RHPA4259.7 (HIV-1)
[49] = biological target: Env of HIV-1 strain Q842.d12 (HIV-1)
[50] = biological target: Env of HIV-1 strain Ce2010_F5 (HIV-1)

B1: NIH45-46^G54W(HC), S28Y(LC) (antibody, V domains shown)
VH: QVRLSQSGGQMKKPGESMRLSCRASGYEFLNCPINWIRLAPGRRPEWMGWLKPRWGAVNYARKFQGRVTMTRDVYSDTAFLELRSLTSDDTAVYFCTRGKYCTARDYYNWDFEHWGRGAPVTVSS
VL: EIVLTQSPATLSLSPGETAIISCRTSQYGSLAWYQQRPGQAPRLVIYSGSTRAAGIPDRFSGSRWGADYNLSISNLESGDFGVYYCQQYEFFGQGTKVQVDI
[1]
  IC50, pseudovirus neutralization: 0.004 µg/mL
[2]
  IC50, pseudovirus neutralization: 0.031 µg/mL
[3]
  IC50, pseudovirus neutralization: 1 ng/mL
[4]
  IC50, pseudovirus neutralization: 0.14 µg/mL
[5]
  IC50, pseudovirus neutralization: 0.011 µg/mL
[6]
  IC50, pseudovirus neutralization: 2 ng/mL
[7]
  IC50, pseudovirus neutralization: 0.046 µg/mL
[8]
  IC50, pseudovirus neutralization: 1 ng/mL
[9]
  IC50, pseudovirus neutralization: 44.3 µg/mL
[10]
  IC50, pseudovirus neutralization: 1 ng/mL
[11]
  IC50, pseudovirus neutralization: 1 ng/mL
[12]
  IC50, pseudovirus neutralization: 2 ng/mL
[13]
  IC50, pseudovirus neutralization: 1 ng/mL

B2: NIH45-46^G54W (antibody, V domains shown)
VH: QVRLSQSGGQMKKPGESMRLSCRASGYEFLNCPINWIRLAPGRRPEWMGWLKPRWGAVNYARKFQGRVTMTRDVYSDTAFLELRSLTSDDTAVYFCTRGKYCTARDYYNWDFEHWGRGAPVTVSS
VL: EIVLTQSPATLSLSPGETAIISCRTSQSGSLAWYQQRPGQAPRLVIYSGSTRAAGIPDRFSGSRWGADYNLSISNLESGDFGVYYCQQYEFFGQGTKVQVDI
[14]
  IC80: 0.01 µg/mL
[15]
  IC80: 0.014 µg/mL
[1]
  IC50, pseudovirus neutralization: 0.019 µg/mL
[2]
  IC50, pseudovirus neutralization: 0.014 µg/mL
[16]
  IC80: 0.027 µg/mL
[17]
  IC80: 0.17 µg/mL
[18]
  IC80: > 50 µg/mL
[3]
  IC50, pseudovirus neutralization: 1 ng/mL
[19]
  IC80: 1.12 µg/mL
[20]
  IC80: 0.165 µg/mL
[21]
  IC80: 0.009 µg/mL
[22]
  IC80: 0.05 µg/mL
[23]
  IC80: 0.21 µg/mL
[24]
  IC80: 0.11 µg/mL
[25]
  IC80: 0.48 µg/mL
[26]
  IC80: 0.023 µg/mL
[27]
  IC80: 0.024 µg/mL
[28]
  IC80: 3 ng/mL
[29]
  IC80: 0.91 µg/mL
[4]
  IC50, pseudovirus neutralization: 0.132 µg/mL
[30]
  IC80: > 50 µg/mL
[31]
  IC80: 0.021 µg/mL
[32]
  IC80: 0.239 µg/mL
[33]
  IC80: 0.45 µg/mL
[34]
  IC80: 0.025 µg/mL
[35]
  IC80: 0.028 µg/mL
[36]
  IC80: 0.15 µg/mL
[37]
  IC80: 1 ng/mL
[38]
  IC80: 0.18 µg/mL
[5]
  IC50, pseudovirus neutralization: 0.01 µg/mL
[39]
  IC80: 2.45 µg/mL
[6]
  IC50, pseudovirus neutralization: 5 ng/mL
[40]
  IC80: 0.127 µg/mL
[7]
  IC50, pseudovirus neutralization: 0.054 µg/mL
[41]
  IC80: 0.13 µg/mL
[42]
  IC80: 0.017 µg/mL
[8]
  IC50, pseudovirus neutralization: 1 ng/mL
[9]
  IC50, pseudovirus neutralization: > 50 µg/mL
[43]
  IC80: 0.2 µg/mL
[44]
  IC80: > 50 µg/mL
[45]
  IC80: 0.196 µg/mL
[10]
  IC50, pseudovirus neutralization: 1 ng/mL
[11]
  IC50, pseudovirus neutralization: 1 ng/mL
[46]
  IC80: 0.052 µg/mL
[47]
  IC80: 0.091 µg/mL
[48]
  IC80: 7 ng/mL
[49]
  IC80: 0.025 µg/mL
[50]
  IC80: 0.187 µg/mL
[12]
  IC50, pseudovirus neutralization: 1 ng/mL
[13]
  IC50, pseudovirus neutralization: 1 ng/mL

B3: NIH45-46^G54W(HC) S28Y(LC) (antibody, V domains shown)
VH: QVRLSQSGGQMKKPGESMRLSCRASGYEFLNCPINWIRLAPGRRPEWMGWLKPRWGAVNYARKFQGRVTMTRDVYSDTAFLELRSLTSDDTAVYFCTRGKYCTARDYYNWDFEHWGRGAPVTVSS
VL: EIVLTQSPATLSLSPGETAIISCRTSQYGSLAWYQQRPGQAPRLVIYSGSTRAAGIPDRFSGSRWGADYNLSISNLESGDFGVYYCQQYEFFGQGTKVQVDI
[14]
  IC80: 0.042 µg/mL
[15]
  IC80: 0.011 µg/mL
[16]
  IC80: 0.017 µg/mL
[17]
  IC80: 0.169 µg/mL
[18]
  IC80: > 50 µg/mL
[19]
  IC80: 0.622 µg/mL
[20]
  IC80: 0.515 µg/mL
[21]
  IC80: 0.054 µg/mL
[22]
  IC80: 0.042 µg/mL
[23]
  IC80: 0.484 µg/mL
[24]
  IC80: 0.083 µg/mL
[25]
  IC80: 0.02 µg/mL
[26]
  IC80: 0.042 µg/mL
[27]
  IC80: 0.055 µg/mL
[28]
  IC80: 4 ng/mL
[29]
  IC80: 0.589 µg/mL
[30]
  IC80: > 50 µg/mL
[31]
  IC80: 0.058 µg/mL
[32]
  IC80: 0.308 µg/mL
[33]
  IC80: 0.467 µg/mL
[34]
  IC80: 0.067 µg/mL
[35]
  IC80: 0.102 µg/mL
[36]
  IC80: 0.258 µg/mL
[37]
  IC80: 13 ng/mL
[38]
  IC80: 0.274 µg/mL
[39]
  IC80: 0.14 µg/mL
[40]
  IC80: 0.254 µg/mL
[41]
  IC80: 0.079 µg/mL
[42]
  IC80: 0.019 µg/mL
[43]
  IC80: 0.219 µg/mL
[44]
  IC80: > 50 µg/mL
[45]
  IC80: 0.239 µg/mL
[46]
  IC80: 0.028 µg/mL
[47]
  IC80: 0.134 µg/mL
[48]
  IC80: 7 ng/mL
[49]
  IC80: 0.017 µg/mL
[50]
  IC80: 0.133 µg/mL
